According to patent US20060204957A1 (published 2006):

B1: LMO4 (other, UniProt P61968 1-165, looked up)
chain: MVNPGSSSQPPPVTAGSLSWKRCAGCGGKIADRFLLYAMDSYWHSRCLKCSCCQAQLGDIGTSCYTKSGMILCRNDYIRLFGNSGACSACGQSIPASELVMRAQGNVYHLKCFTCSTCRNRLVPGDRFHYINGSLFCEHDRPTALINGHLNSLQSNPLLPDQKVC
notes: Two-hybrid isolate; also called LIM 04; LIM04
B2: Casein Kinase 1, γ2 (enzyme)
chain: not shown
notes: Two-hybrid isolate; also called clone S55-1
B3: MTA1s (other)
chain: MAANMYRVGDYVYFENSSSNPYLIRRIEELNKTANGNVEAKVVCFYRRRDISSTLIALADKHATLSVCYKAGPGADNGEEGEIEEEMENPEMVDLPEKLKHQLRHRELFLSRQLESLPATHIRGKCSVTLLNETESLKSYLEREDFFFYSLVYDPQQKTLLADKGEIRVGNRYQADITDLLKEGEEDGRDQSRLETQVWEAHNPLTDKQIDQFLVVARSVGTFARALDCSSSVRQPSLHMSAAAASRDITLFHAMDTLHKNIYDISKAISALVPQGGPVLCRDEMEEWSASEANLFEEALEKYGKDFTDIQQDFLPWKSLTSIIEYYYMWKTTDRYVQQKRLKAAEAESKLKQVYIPNYNKPNPNQISVNNVKAGVVNGTGAPGQSPGAGRACESCYMSSLRILLDILEEIWWLENANPVRWREARTKPQ
notes: also called MTA1s (short); S2 clone
B4: GST-AF2 domain of the ER (receptor, UniProt P03372 282-595, looked up)
chain: SAGDMRAANLWPSPLMIKRSKKNSLALSLTADQMVSALLDAEPPILYSEYDPTRPFSEASMMGLLTNLADRELVHMINWAKRVPGFVDLTLHDQVHLLECAWLEILMIGLVWRSMEHPGKLLFAPNLLLDRNQGKCVEGMVEIFDMLLATSSRFRMMNLQGEEFVCLKSIILLNSGVYTFLSSTLKSLEEKDHIHRVLDKITDTLIHLMAKAGLTLQQQHQRLAQLLLILSHIRHMSNKGMEHLYSMKCKNVVPLYDLLLEMLDAHRLHAPTSRGGASVEETDQSHLATAGSTSSHSLQKYYITGEAEGFPATV
notes: domain: AF2 domain; Immobilized on glutathione-sepharose beads; also called AF2 domain of ERα; not shown: glutathione S-transferase
B5: T7-MTA1sdel (other, not shown: small tags and cut ends)
chain: MAANMYRVGDYVYFENSSSNPYLIRRIEELNKTANGNVEAKVVCFYRRRDISSTLIALADKHATLSVCYKAGPGADNGEEGEIEEEMENPEMVDLPEKLKHQLRHRELFLSRQLESLPATHIRGKCSVTLLNETESLKSYLEREDFFFYSLVYDPQQKTLLADKGEIRVGNRYQADITDLLKEGEEDGRDQSRLETQVWEAHNPLTDKQIDQFLVVARSVGTFARALDCSSSVRQPSLHMSAAAASRDITLFHAMDTLHKNIYDISKAISALVPQGGPVLCRDEMEEWSASEANLFEEALEKYGKDFTDIQQDFLPWKSLTSIIEYYYMWKTTDRYVQQKRLKAAEAESKLKQVYIPNYNKPNPNQISVNNVKAGVVNGTGAPGQSPGAGRACESCYMSSDILEEIWWLENANPVRWREARTKPQ
notes: Expressed in MCF-7 cells for immunoprecipitation with T7-mAb; also called T7-tagged MTA1s-del
B6: T7-MTA1sstop (other, not shown: small tags and cut ends)
chain: MAANMYRVGDYVYFENSSSNPYLIRRIEELNKTANGNVEAKVVCFYRRRDISSTLIALADKHATLSVCYKAGPGADNGEEGEIEEEMENPEMVDLPEKLKHQLRHRELFLSRQLESLPATHIRGKCSVTLLNETESLKSYLEREDFFFYSLVYDPQQKTLLADKGEIRVGNRYQADITDLLKEGEEDGRDQSRLETQVWEAHNPLTDKQIDQFLVVARSVGTFARALDCSSSVRQPSLHMSAAAASRDITLFHAMDTLHKNIYDISKAISALVPQGGPVLCRDEMEEWSASEANLFEEALEKYGKDFTDIQQDFLPWKSLTSIIEYYYMWKTTDRYVQQKRLKAAEAESKLKQVYIPNYNKPNPNQISVNNVKAGVVNGTGAPGQSPGAGRACESCY
notes: Expressed in MCF-7 cells for immunoprecipitation with T7-mAb; also called T7-tagged MTA1s-stop
B7: MTA1s-del (other)
chain: B5 chain
B8: MTA1s-stop (other)
chain: B6 chain

How the values were obtained:
MTA1s = target: B3; assay: FIG. 14 legend
[1] = target: T1, Homologs to eukaryotic translation initiation factor 3, subunit 6 (48 kD) (UniProt P60228 1-445, limits assumed); assay: FIG. 14 legend
T1 construct: Two-hybrid isolate; also called Cone S 64-1

[2] = target: T2, bifunctional ATP sulfurylase/adenosine 5'-phosphosulfate (APS) kinase (UniProt O43252 1-624, limits assumed); assay: yeast two-hybrid screen for MTA1s-interacting proteins
T2 construct: Two-hybrid isolate
T2 sequence (looked up): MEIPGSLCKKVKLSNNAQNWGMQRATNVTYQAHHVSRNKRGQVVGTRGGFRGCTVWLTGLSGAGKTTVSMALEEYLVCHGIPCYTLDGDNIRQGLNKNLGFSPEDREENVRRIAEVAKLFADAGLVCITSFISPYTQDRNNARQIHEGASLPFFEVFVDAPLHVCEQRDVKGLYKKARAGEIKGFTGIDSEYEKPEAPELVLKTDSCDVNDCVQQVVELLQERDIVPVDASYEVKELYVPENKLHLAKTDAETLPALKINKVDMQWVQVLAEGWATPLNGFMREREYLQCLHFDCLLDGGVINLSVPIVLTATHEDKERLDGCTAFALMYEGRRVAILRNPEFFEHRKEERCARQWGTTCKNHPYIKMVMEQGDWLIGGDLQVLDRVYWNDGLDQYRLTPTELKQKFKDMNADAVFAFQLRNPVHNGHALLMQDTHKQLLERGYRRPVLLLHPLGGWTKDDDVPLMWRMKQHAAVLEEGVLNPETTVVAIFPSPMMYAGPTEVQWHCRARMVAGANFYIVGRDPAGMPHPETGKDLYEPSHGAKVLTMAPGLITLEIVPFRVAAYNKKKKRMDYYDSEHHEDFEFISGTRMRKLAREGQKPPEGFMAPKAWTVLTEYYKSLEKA

MTA1s-stop = target: B8; assay: GST pull-down (FIG. 4C)
MTA1s-del = target: B7; assay: GST pull-down (FIG. 4C)
Estrogen Receptor α (ER) = target: T3, Estrogen Receptor α (ER) (UniProt P03372 1-595); assay: immunoprecipitation with T7-mAb, immunoblot for ERα (FIG. 4D)
T3 construct: Endogenous intracellular receptor in breast cancer cell lysates, and ER where no construct is named; also called ERα; endogenous ER
T3 sequence (looked up): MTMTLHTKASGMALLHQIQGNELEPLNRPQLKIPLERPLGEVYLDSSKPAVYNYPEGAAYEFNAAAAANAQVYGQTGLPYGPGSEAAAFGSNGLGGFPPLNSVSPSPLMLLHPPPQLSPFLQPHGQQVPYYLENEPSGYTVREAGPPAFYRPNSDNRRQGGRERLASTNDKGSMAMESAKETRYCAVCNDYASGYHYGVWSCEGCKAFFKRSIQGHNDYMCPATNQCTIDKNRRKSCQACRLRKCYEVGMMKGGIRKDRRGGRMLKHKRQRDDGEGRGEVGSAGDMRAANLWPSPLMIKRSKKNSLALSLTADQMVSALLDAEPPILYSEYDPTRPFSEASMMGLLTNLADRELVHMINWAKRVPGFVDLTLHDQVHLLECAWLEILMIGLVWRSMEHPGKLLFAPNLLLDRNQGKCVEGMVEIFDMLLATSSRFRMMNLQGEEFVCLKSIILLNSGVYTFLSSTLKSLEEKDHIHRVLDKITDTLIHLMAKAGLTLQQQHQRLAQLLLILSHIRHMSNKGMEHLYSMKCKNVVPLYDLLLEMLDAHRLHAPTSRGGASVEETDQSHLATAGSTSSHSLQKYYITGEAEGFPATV

GAD-ERα = target: T4, GAD-ERα (UniProt P03372 1-536); assay: yeast two-hybrid (FIG. 4B)
T4 construct: range 1-536; Yeast two-hybrid prey; also called GAD-ERα amino acids 1-536
T4 sequence (looked up): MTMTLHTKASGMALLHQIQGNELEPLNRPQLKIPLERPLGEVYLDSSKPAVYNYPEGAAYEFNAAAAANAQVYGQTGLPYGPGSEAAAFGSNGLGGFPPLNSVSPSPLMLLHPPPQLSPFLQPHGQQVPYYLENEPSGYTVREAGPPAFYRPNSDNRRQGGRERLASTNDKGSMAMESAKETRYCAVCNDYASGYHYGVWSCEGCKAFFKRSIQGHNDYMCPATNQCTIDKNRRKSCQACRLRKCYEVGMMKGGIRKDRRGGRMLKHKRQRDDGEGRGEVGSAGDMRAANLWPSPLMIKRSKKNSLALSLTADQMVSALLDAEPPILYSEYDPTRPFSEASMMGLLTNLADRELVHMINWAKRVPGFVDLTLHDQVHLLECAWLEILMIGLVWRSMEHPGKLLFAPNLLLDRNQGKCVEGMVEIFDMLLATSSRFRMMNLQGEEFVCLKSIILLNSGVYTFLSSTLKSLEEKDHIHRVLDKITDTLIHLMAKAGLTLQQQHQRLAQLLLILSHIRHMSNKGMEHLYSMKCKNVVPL

T1 sequence (P60228 whole entry): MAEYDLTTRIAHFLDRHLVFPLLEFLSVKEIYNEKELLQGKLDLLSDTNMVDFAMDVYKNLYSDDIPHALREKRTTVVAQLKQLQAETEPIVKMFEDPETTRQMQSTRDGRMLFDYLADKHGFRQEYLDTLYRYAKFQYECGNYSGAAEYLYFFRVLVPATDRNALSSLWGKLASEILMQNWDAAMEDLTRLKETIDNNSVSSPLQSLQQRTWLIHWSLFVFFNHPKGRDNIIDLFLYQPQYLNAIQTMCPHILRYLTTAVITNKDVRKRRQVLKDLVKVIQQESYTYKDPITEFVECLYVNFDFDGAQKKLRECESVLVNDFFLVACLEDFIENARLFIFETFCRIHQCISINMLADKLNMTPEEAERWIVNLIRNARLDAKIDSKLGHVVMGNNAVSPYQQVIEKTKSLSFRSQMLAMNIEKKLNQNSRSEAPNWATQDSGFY

Binder: B1
- binding result (MTA1s): binds

Binder: B2
- binding result (MTA1s): binds

Binder: B3
- binding result [1]: binds
- binding result [2]: binds

Binder: B4
- binding result (MTA1s-stop): no binding
- binding result (MTA1s-del): no binding

Binder: B5
- binding result (Estrogen Receptor α (ER)): no binding

Binder: B6
- binding result (Estrogen Receptor α (ER)): no binding

Binder: B7
- binding result (GAD-ERα): no binding

Binder: B8
- binding result (GAD-ERα): no binding
